The supplement of paper PMC5998384

Tests used:
HeLa Kyoto [1] = assay: melting temperature (median over replicates), in situ; higher = more thermally stable
HeLa Kyoto [2] = assay: solubility change mitosis vs G1/S (difference of NP-40 vs SDS log2 ratios) (log2 ratio difference); higher = more soluble in mitosis
HeLa Kyoto [3] = assay: solubility in G1/S (NP-40 vs SDS abundance) (log2 ratio); higher = more soluble; conditions: cell cycle stage: G1/S
HeLa Kyoto [4] = assay: thermal stability score vs G1/S (z-score of summed log2 fold changes over temperatures); higher = more thermally stable than in G1/S
[5] = cell cycle stage: early G1 (4.5 h after nocodazole release)
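Wherever melting temperature (median over replicates), in situ is given: HeLa Kyoto cells synchronized by double thymidine or nocodazole block, proteins quantified by TMT10plex mass spectrometry, three independent biological replicates.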
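Wherever solubility change mitosis vs G1/S (difference of NP-40 vs SDS log2 ratios) is given: synchronized HeLa Kyoto cells (double thymidine block for G1/S, nocodazole release for mitosis), protein amounts in NP-40 versus SDS lysates quantified by mass spectrometry, three biological replicates.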
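Wherever solubility in G1/S (NP-40 vs SDS abundance) is given: HeLa Kyoto cells arrested at G1/S by double thymidine block, proteins quantified by TMT10plex mass spectrometry in mild NP-40 versus SDS extracts, three biological replicates.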
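Wherever thermal stability score vs G1/S (z-score of summed log2 fold changes over temperatures) is given: synchronized HeLa Kyoto cells, proteins quantified by TMT10plex mass spectrometry, three biological replicates, mitosis taken 0.5 h after nocodazole release, G1/S directly after double thymidine block.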

ANTXR1, sequence (chain, as listed by the source): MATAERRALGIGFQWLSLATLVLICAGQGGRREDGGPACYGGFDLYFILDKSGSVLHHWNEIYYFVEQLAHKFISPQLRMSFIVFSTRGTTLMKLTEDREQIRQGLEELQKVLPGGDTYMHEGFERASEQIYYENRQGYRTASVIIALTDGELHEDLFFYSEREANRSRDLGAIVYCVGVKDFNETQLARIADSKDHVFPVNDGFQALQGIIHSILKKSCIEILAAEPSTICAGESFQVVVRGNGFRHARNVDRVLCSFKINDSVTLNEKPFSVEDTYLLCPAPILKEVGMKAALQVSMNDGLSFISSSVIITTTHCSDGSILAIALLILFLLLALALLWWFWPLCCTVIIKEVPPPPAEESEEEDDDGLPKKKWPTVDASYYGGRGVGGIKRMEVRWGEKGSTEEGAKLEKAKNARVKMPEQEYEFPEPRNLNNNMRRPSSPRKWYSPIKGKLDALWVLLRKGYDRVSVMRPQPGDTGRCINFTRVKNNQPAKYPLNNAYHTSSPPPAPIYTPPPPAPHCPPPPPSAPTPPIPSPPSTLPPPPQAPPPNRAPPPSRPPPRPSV

Substance | melting temperature (HeLa Kyoto [1]; cell cycle stage: G1/S) [°C] | melting temperature (HeLa Kyoto [1]; cell cycle stage: mitosis) [°C] | solubility change mitosis (log2) (HeLa Kyoto [2]) | solubility in G1/S (log2) (HeLa Kyoto [3]) | thermal stability score (HeLa Kyoto [4]; [5]) | thermal stability score (HeLa Kyoto [4]; cell cycle stage: mitosis)
MGNAAGSAEQPAGPAAPPPKQPAPPKQPMPAAGELEERFNRALNCMNLPPDKVQLLSQYDNEKKWELICDQERFQVKNPPAAYIQKLKSYVDTGGVSRKVAADWMSNLGFKRRVQESTQVLRELETSLRTNHIGWVQEFLNEENRGLDVLLEYLAFAQCSVTYDMESTDNGASNSEKNKPLEQSVEDLSKGPPSSVPKSRHLTIKLTPAHSRKALRNSRIVSQKDDVHVCIMCLRAIMNYQSGFSLVMNHPACVNEIALSLNNKNPRTKALVLELLAAVCLVRGGHDIILAAFDNFKEVCGEQHRFEKLMEYFRNEDSNIDFMVACMQFINIVVHSVENMNFRVFLQYEFTHLGLDLYLERLRLTESDKLQVQIQAYLDNIFDVGALLEDTETKNAVLEHMEELQEQVALLTERLRDAENESMAKIAELEKQLSQARKELETLRERFSESTAMGPSRRPPEPEKAPPAAPTRPSALELKVEELEEKGLIRILRGPGDAVSIEILPVAVATPSGGDAPTPGVPTGSPSPDLAPAAEPAPGAAPPPPPPLPGLPSPQEAPPSAPPQAPPLPGSPEPPPAPPLPGDLPPPPPPPPPPPGTDGPVPPPPPPPPPPPGGPPDALGRRDSELGPGVKAKKPIQTKFRMPLLNWVALKPSQITGTVFTELNDEKVLQELDMSDFEEQFKTKSQGPSLDLSALKSKAAQKAPSKATLIEANRAKNLAITLRKGNLGAERICQAIEAYDLQALGLDFLELLMRFLPTEYERSLITRFEREQRPMEELSEEDRFMLCFSRIPRLPERMTTLTFLGNFPDTAQLLMPQLNAIIAASMSIKSSDKLRQILEIVLAFGNYMNSSKRGAAYGFRLQSLDALLEMKSTDRKQTLLHYLVKVIAEKYPQLTGFHSDLHFLDKAGSVSLDSVLADVRSLQRGLELTQREFVRQDDCMVLKEFLRANSPTMDKLLADSKTAQEAFESVVEYFGENPKTTSPGLFFSLFSRFIKAYKKAEQEVEQWKKEAAAQEAGADTPGKGEPPAPKSPPKARRPQMDLISELKRRQQKEPLIYESDRDGAIEDIITVIKTVPFTARTGKRTSRLLCEASLGEEMPL [FMNL1] | 47.7 | 48.1 | -0.0294 | 0.507 | 1.48 | 2.85
IMPDH1 | 51.1 | 51.6 | -0.176 | 0.0289 | 5.12 | 3.19
MLRTSVLRLLGRTGASRLSLLEDFGPRYYSSGSLSAGDDACDVRAYFTTPIFYVNAAPHIGHLYSALLADALCRHRRLRGPSTAATRFSTGTDEHGLKIQQAAATAGLAPTELCDRVSEQFQQLFQEAGISCTDFIRTTEARHRVAVQHFWGVLKSRGLLYKGVYEGWYCASDECFLPEAKVTQQPGPSGDSFPVSLESGHPVSWTKEENYIFRLSQFRKPLQRWLRGNPQAITPEPFHHVVLQWLDEELPDLSVSRRSSHLHWGIPVPGDDSQTIYVWLDALVNYLTVIGYPNAEFKSWWPATSHIIGKDILKFHAIYWPAFLLGAGMSPPQRICVHSHWTVCGQKMSKSLGNVVDPRTCLNRYTVDGFRYFLLRQGVPNWDCDYYDEKVVKLLNSELADALGGLLNRCTAKRINPSETYPAFCTTCFPSEPGLVGPSVRAQAEDYALVSAVATLPKQVADHYDNFRIYKALEAVSSCVRQTNGFVQRHAPWKLNWESPVDAPWLGTVLHVALECLRVFGTLLQPVTPSLADKLLSRLGVSASERSLGELYFLPRFYGHPCPFEGRRLGPETGLLFPRLDQSRTWLVKAHRT [MARS2] | 55.2 | 55.5 | -0.083 | 0.0996 | -3.14 | -3.9
ANTXR1 | 55 | 55 | 0.0236 | 0.0506 | -1.21 | -3.82
MGNGMCSRKQKRIFQTLLLLTVVFGFLYGAMLYYELQTQLRKAEAVALKYQQHQESLSAQLQVVYEHRSRLEKSLQKERLEHKKAKEDFLVYKLEAQETLNKGRQDSNSRYSALNVQHQMLKSQHEELKKQHSDLEEEHRKQGEDFSRTFNDHKQKYLQLQQEKEQELSKLKETVYNLREENRQLRKAHQDIHTQLQDVKQQHKNLLSEHEQLVVTLEDHKSALAAAQTQVAEYKQLKDTLNRIPSLRKPDPAEQQNVTQVAHSPQGYNTAREKPTREVQEVSRNNDVWQNHEAVPGRAEDTKLYAPTHKEAEFQAPPEPIQQEVERREPEEHQVEEEHRKALEEEEMEQVGQAEHLEEEHDPSPEEQDREWKEQHEQREAANLLEGHARAEVYPSAKPMIKFQSPYEEQLEQQRLAVQQVEEAQQLREHQEALHQQRLQGHLLRQQEQQQQQVAREMALQRQAELEEGRPQHQEQLRQQAHYDAMDNDIVQGAEDQGIQGEEGAYERDNQHQDEAEGDPGNRHEPREQGPREADPESEADRAAVEDINPADDPNNQGEDEFEEAEQVREENLPDENEEQKQSNQKQENTEVEEHLVMAGNPDQQEDNVDEQYQEEAEEEVQEDLTEEKKRELEHNAEETYGENDENTDDKNNDGEEQEVRDDNRPKGREEHYEEEEEEEEDGAAVAEKSHRRAEM [GOLIM4] | 54 | 53 | -0.0167 | 0.317 | -2.18 | -3.71
MLSALARPASAALRRSFSTSAQNNAKVAVLGASGGIGQPLSLLLKNSPLVSRLTLYDIAHTPGVAADLSHIETKAAVKGYLGPEQLPDCLKGCDVVVIPAGVPRKPGMTRDDLFNTNATIVATLTAACAQHCPEAMICVIANPVNSTIPITAEVFKKHGVYNPNKIFGVTTLDIVRANTFVAELKGLDPARVNVPVIGGHAGKTIIPLISQCTPKVDFPQDQLTALTGRIQEAGTEVVKAKAGAGSATLSMAYAGARFVFSLVDAMNGKEGVVECSFVKSQETECTYFSTPLLLGKKGIEKNLGIGKVSSFEEKMISDAIPELKASIKKGEDFVKTLK [MDH2] | 56.9 | 57.2 | -0.0422 | 0.383 | -0.843 | -1.62
